In assay [1] the target is CD3 on human T cells (Jurkat cells, primary human T cells) (human) (UniProt P07766). The assay is described as follows: flow cytometry; positive control scFv on human T cells, anti-His Alexa-647. A general note: A flow cytometer gives signals particle by particle.
The target is the same in assay [2]. The assay is described as follows: flow cytometry; 10 nM antibody on Jurkat cells (No Ab background 2075.61).

The text below walks through data of patent US20220033505A1.

CD3 on human T cells (Jurkat cells, primary human T cells) (human), sequence (P07766 23-207): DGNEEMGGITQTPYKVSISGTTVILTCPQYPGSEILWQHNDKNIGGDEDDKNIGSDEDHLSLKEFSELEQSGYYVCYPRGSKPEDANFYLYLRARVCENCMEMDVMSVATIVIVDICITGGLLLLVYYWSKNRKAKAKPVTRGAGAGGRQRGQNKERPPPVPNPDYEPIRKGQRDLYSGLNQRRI

As to “CD3W36 (anti-CD3 antibody SP34 formatted as LH-scFv, positive control)”, the MFI (n = 2) in assay [1] amounted to 99500.

In the case of “UCHT1 (anti-CD3 clone, positive control) (antibody)”, the MFI (arbitrary units) (arbitrary units) in assay [2] was found to be 89200.
